According to article PMC5379764, “Polynucleotide phosphorylase is implicated in homologous recombination and DNA repair in Escherichia coli”:

Target: T1, PNPase wild type (Escherichia coli, UniProt P05055 1-711)
T1 sequence: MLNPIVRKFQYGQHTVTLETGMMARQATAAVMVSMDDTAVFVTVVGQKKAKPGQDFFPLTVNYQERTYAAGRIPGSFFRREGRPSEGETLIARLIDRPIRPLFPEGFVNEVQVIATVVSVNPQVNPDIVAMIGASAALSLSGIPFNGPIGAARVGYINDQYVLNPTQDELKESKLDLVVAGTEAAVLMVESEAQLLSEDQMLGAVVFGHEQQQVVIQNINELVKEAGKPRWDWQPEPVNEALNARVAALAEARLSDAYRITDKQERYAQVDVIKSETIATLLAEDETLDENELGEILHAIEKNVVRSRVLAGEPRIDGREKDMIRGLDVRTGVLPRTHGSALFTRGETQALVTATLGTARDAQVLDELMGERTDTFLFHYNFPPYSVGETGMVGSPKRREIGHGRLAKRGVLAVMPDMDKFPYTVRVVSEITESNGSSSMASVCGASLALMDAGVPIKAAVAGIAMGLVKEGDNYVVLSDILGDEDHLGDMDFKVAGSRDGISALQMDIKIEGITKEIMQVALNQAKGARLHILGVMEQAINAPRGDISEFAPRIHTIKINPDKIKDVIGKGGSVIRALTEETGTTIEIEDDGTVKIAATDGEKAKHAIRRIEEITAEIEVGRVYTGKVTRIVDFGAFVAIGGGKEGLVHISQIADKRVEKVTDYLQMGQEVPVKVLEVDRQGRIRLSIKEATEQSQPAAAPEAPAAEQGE
Assay: EMSA; no divalent cation; efficiency similar to RNA01; 50 mM Tris-HCl pH 7.4, 50 mM NaCl, 0.5 mM DTT, 0.025% NP40, 10% glycerol, +/- 2 mM MgCl2 or MnCl2; 50 fmol probe in 10 µl; 20 min at 21 °C; native 5% PAGE at 4
Conditions: protein: recombinant; tags: His-tag; chain copies: 3; label: 5'-32P; single-stranded 20-mer

## ACTGGACAAATACTCCGACG (ssDNA) [DNA02]
  binding result: binds
